From patent publication US20220042033A1, “COMPOSITION AND METHOD FOR CONFERRING AND/OR ENHANCING TOLERANCE AGAINST HERBICIDES BY USING VARIANTS OF PPO” (FarmHannong Co., Ltd., priority 2017, published 2022)

Experiments:
MxPPO [1] = experiment: Herbicide tolerance test of MxPPO wild type and variants in PPO-deficient E. coli BT3(ΔPPO), growth on herbicide-containing LB agar; format: cell-based, Myxococcus xanthus; conditions: relative to MxPPO WT, dark; for Herbicide tolerance, flumioxazin: up to 1000 μM (FIGS. 21-22); for Herbicide tolerance, sulfentrazone: up to 4000 μM (FIGS. 23-24)
Description: Then, the extent of tolerance was evaluated.

MxPPO [2] = experiment: PPO enzyme activity of purified MBP-fused MxPPO wild type and variants; format: biochemical, Myxococcus xanthus; conditions: PPO enzyme activity of purified MxPPO protein, relative to wild type

B1: R95A + A170C + L332T + M365I: MxPPO (SEQ ID NO: 3) variant (protein)
chain: MHHMPRTTGMNVAVVGGGISGLAVAHHLRSRGTDAVLLESSARLGGAVGTHALAGYLVEQGPNSFLDREPATRALAAALNLEGRIRAADPAAKRAYVYTRGRLRSVPASPPAFLASDILPLGARLRVAGELFSRRAPEGVDESLAAFGRRHLGHRATQVLLDAVQTGIYCGDVEQLSVAATFPMLVKMEREHRSLILGAIRAQKAQRQAALPAGTAPKLSGALSTFDGGLQVLIDALAASLGDAAHVGARVEGLAREDGGWRLIIEEHGRRAELSVAQVVLAAPAHATAKLLRPLDDALAALVAGIAYAPIAVVHLGFDAGTLPAPDGFGFTVPAEEQRRMLGAIHASTTFPFRAEGGRVLYSCIVGGARQPGLVEQDEDALAALAREELKALAGVTARPSFTRVFRWPLGIPQYNLGHLERVAAIDAALQRLPGLHLIGNAYKGVGLNDCIRNAAQLADALVAGNTSHAP
modifications: Synthetic (Protoporphyrinogen IX oxidase (MxPPO) of Myxococcus xanthus)
In the case of B1, the “Herbicide tolerance, flumioxazin” value (MxPPO [1]) is reported as “+ (1-9 fold higher tolerance)”, the “Herbicide tolerance, sulfentrazone” value (MxPPO [1]) is reported as “+++ (100-999 fold higher tolerance)” and the “Activity (%)” value (MxPPO [2]) is reported as 35%.

B2: R95A + I168C + A170C + L332T + M365I: MxPPO (SEQ ID NO: 3) variant (protein)
chain: MHHMPRTTGMNVAVVGGGISGLAVAHHLRSRGTDAVLLESSARLGGAVGTHALAGYLVEQGPNSFLDREPATRALAAALNLEGRIRAADPAAKRAYVYTRGRLRSVPASPPAFLASDILPLGARLRVAGELFSRRAPEGVDESLAAFGRRHLGHRATQVLLDAVQTGCYCGDVEQLSVAATFPMLVKMEREHRSLILGAIRAQKAQRQAALPAGTAPKLSGALSTFDGGLQVLIDALAASLGDAAHVGARVEGLAREDGGWRLIIEEHGRRAELSVAQVVLAAPAHATAKLLRPLDDALAALVAGIAYAPIAVVHLGFDAGTLPAPDGFGFTVPAEEQRRMLGAIHASTTFPFRAEGGRVLYSCIVGGARQPGLVEQDEDALAALAREELKALAGVTARPSFTRVFRWPLGIPQYNLGHLERVAAIDAALQRLPGLHLIGNAYKGVGLNDCIRNAAQLADALVAGNTSHAP
modifications: Synthetic (Protoporphyrinogen IX oxidase (MxPPO) of Myxococcus xanthus)
For B2, the “Herbicide tolerance, flumioxazin” value (MxPPO [1]) was “+ (1-9 fold higher tolerance)”, the “Herbicide tolerance, sulfentrazone” value (MxPPO [1]) was “+++ (100-999 fold higher tolerance)” and the “Activity (%)” value (MxPPO [2]) was 18%.

B3: I168C + A170C + I311M + M365I: MxPPO (SEQ ID NO: 3) variant (protein)
chain: MHHMPRTTGMNVAVVGGGISGLAVAHHLRSRGTDAVLLESSARLGGAVGTHALAGYLVEQGPNSFLDREPATRALAAALNLEGRIRAADPAAKRRYVYTRGRLRSVPASPPAFLASDILPLGARLRVAGELFSRRAPEGVDESLAAFGRRHLGHRATQVLLDAVQTGCYCGDVEQLSVAATFPMLVKMEREHRSLILGAIRAQKAQRQAALPAGTAPKLSGALSTFDGGLQVLIDALAASLGDAAHVGARVEGLAREDGGWRLIIEEHGRRAELSVAQVVLAAPAHATAKLLRPLDDALAALVAGIAYAPMAVVHLGFDAGTLPAPDGFGFLVPAEEQRRMLGAIHASTTFPFRAEGGRVLYSCIVGGARQPGLVEQDEDALAALAREELKALAGVTARPSFTRVFRWPLGIPQYNLGHLERVAAIDAALQRLPGLHLIGNAYKGVGLNDCIRNAAQLADALVAGNTSHAP
modifications: Synthetic (Protoporphyrinogen IX oxidase (MxPPO) of Myxococcus xanthus)
In the case of B3, the “Herbicide tolerance, flumioxazin” value (MxPPO [1]) is reported as “+ (1-9 fold higher tolerance)”, the “Herbicide tolerance, sulfentrazone” value (MxPPO [1]) is reported as “+ (1-9 fold higher tolerance)” and the “Activity (%)” value (MxPPO [2]) is reported as 44%.

B4: I168C + A170C + L332T + M365V: MxPPO (SEQ ID NO: 3) variant (protein)
chain: MHHMPRTTGMNVAVVGGGISGLAVAHHLRSRGTDAVLLESSARLGGAVGTHALAGYLVEQGPNSFLDREPATRALAAALNLEGRIRAADPAAKRRYVYTRGRLRSVPASPPAFLASDILPLGARLRVAGELFSRRAPEGVDESLAAFGRRHLGHRATQVLLDAVQTGCYCGDVEQLSVAATFPMLVKMEREHRSLILGAIRAQKAQRQAALPAGTAPKLSGALSTFDGGLQVLIDALAASLGDAAHVGARVEGLAREDGGWRLIIEEHGRRAELSVAQVVLAAPAHATAKLLRPLDDALAALVAGIAYAPIAVVHLGFDAGTLPAPDGFGFTVPAEEQRRMLGAIHASTTFPFRAEGGRVLYSCVVGGARQPGLVEQDEDALAALAREELKALAGVTARPSFTRVFRWPLGIPQYNLGHLERVAAIDAALQRLPGLHLIGNAYKGVGLNDCIRNAAQLADALVAGNTSHAP
modifications: Synthetic (Protoporphyrinogen IX oxidase (MxPPO) of Myxococcus xanthus)
B4 was tested, and the “Herbicide tolerance, flumioxazin” value (MxPPO [1]) was “+ (1-9 fold higher tolerance)”, the “Herbicide tolerance, sulfentrazone” value (MxPPO [1]) was “++ (10-99 fold higher tolerance)” and the “Activity (%)” value (MxPPO [2]) was 40%.

B5: R95A + I168C + I311M + L332T + M365V: MxPPO (SEQ ID NO: 3) variant (protein)
chain: MHHMPRTTGMNVAVVGGGISGLAVAHHLRSRGTDAVLLESSARLGGAVGTHALAGYLVEQGPNSFLDREPATRALAAALNLEGRIRAADPAAKRAYVYTRGRLRSVPASPPAFLASDILPLGARLRVAGELFSRRAPEGVDESLAAFGRRHLGHRATQVLLDAVQTGCYAGDVEQLSVAATFPMLVKMEREHRSLILGAIRAQKAQRQAALPAGTAPKLSGALSTFDGGLQVLIDALAASLGDAAHVGARVEGLAREDGGWRLIIEEHGRRAELSVAQVVLAAPAHATAKLLRPLDDALAALVAGIAYAPMAVVHLGFDAGTLPAPDGFGFTVPAEEQRRMLGAIHASTTFPFRAEGGRVLYSCVVGGARQPGLVEQDEDALAALAREELKALAGVTARPSFTRVFRWPLGIPQYNLGHLERVAAIDAALQRLPGLHLIGNAYKGVGLNDCIRNAAQLADALVAGNTSHAP
modifications: Synthetic (Protoporphyrinogen IX oxidase (MxPPO) of Myxococcus xanthus)
With B5 the “Herbicide tolerance, flumioxazin” value (MxPPO [1]) was “+ (1-9 fold higher tolerance)”, the “Herbicide tolerance, sulfentrazone” value (MxPPO [1]) was “+++ (100-999 fold higher tolerance)” and the “Activity (%)” value (MxPPO [2]) was 12%.

B6: I168C + A170C + I311M + L332T + M365V: MxPPO (SEQ ID NO: 3) variant (protein)
chain: MHHMPRTTGMNVAVVGGGISGLAVAHHLRSRGTDAVLLESSARLGGAVGTHALAGYLVEQGPNSFLDREPATRALAAALNLEGRIRAADPAAKRRYVYTRGRLRSVPASPPAFLASDILPLGARLRVAGELFSRRAPEGVDESLAAFGRRHLGHRATQVLLDAVQTGCYCGDVEQLSVAATFPMLVKMEREHRSLILGAIRAQKAQRQAALPAGTAPKLSGALSTFDGGLQVLIDALAASLGDAAHVGARVEGLAREDGGWRLIIEEHGRRAELSVAQVVLAAPAHATAKLLRPLDDALAALVAGIAYAPMAVVHLGFDAGTLPAPDGFGFTVPAEEQRRMLGAIHASTTFPFRAEGGRVLYSCVVGGARQPGLVEQDEDALAALAREELKALAGVTARPSFTRVFRWPLGIPQYNLGHLERVAAIDAALQRLPGLHLIGNAYKGVGLNDCIRNAAQLADALVAGNTSHAP
modifications: Synthetic (Protoporphyrinogen IX oxidase (MxPPO) of Myxococcus xanthus)
B6 was tested, and the “Herbicide tolerance, flumioxazin” value (MxPPO [1]) was “+ (1-9 fold higher tolerance)”, the “Herbicide tolerance, sulfentrazone” value (MxPPO [1]) was “++ (10-99 fold higher tolerance)” and the “Activity (%)” value (MxPPO [2]) was 20%.

B7: A170C + I311M + L332T + M365I: MxPPO (SEQ ID NO: 3) variant (protein)
chain: MHHMPRTTGMNVAVVGGGISGLAVAHHLRSRGTDAVLLESSARLGGAVGTHALAGYLVEQGPNSFLDREPATRALAAALNLEGRIRAADPAAKRRYVYTRGRLRSVPASPPAFLASDILPLGARLRVAGELFSRRAPEGVDESLAAFGRRHLGHRATQVLLDAVQTGIYCGDVEQLSVAATFPMLVKMEREHRSLILGAIRAQKAQRQAALPAGTAPKLSGALSTFDGGLQVLIDALAASLGDAAHVGARVEGLAREDGGWRLIIEEHGRRAELSVAQVVLAAPAHATAKLLRPLDDALAALVAGIAYAPMAVVHLGFDAGTLPAPDGFGFTVPAEEQRRMLGAIHASTTFPFRAEGGRVLYSCIVGGARQPGLVEQDEDALAALAREELKALAGVTARPSFTRVFRWPLGIPQYNLGHLERVAAIDAALQRLPGLHLIGNAYKGVGLNDCIRNAAQLADALVAGNTSHAP
modifications: Synthetic (Protoporphyrinogen IX oxidase (MxPPO) of Myxococcus xanthus)
With B7 the “Herbicide tolerance, flumioxazin” value (MxPPO [1]) was “+ (1-9 fold higher tolerance)” and the “Activity (%)” value (MxPPO [2]) was 52%.

B8: R95A + I168C + A170C + I311M + M365V: MxPPO (SEQ ID NO: 3) variant (protein)
chain: MHHMPRTTGMNVAVVGGGISGLAVAHHLRSRGTDAVLLESSARLGGAVGTHALAGYLVEQGPNSFLDREPATRALAAALNLEGRIRAADPAAKRAYVYTRGRLRSVPASPPAFLASDILPLGARLRVAGELFSRRAPEGVDESLAAFGRRHLGHRATQVLLDAVQTGCYCGDVEQLSVAATFPMLVKMEREHRSLILGAIRAQKAQRQAALPAGTAPKLSGALSTFDGGLQVLIDALAASLGDAAHVGARVEGLAREDGGWRLIIEEHGRRAELSVAQVVLAAPAHATAKLLRPLDDALAALVAGIAYAPMAVVHLGFDAGTLPAPDGFGFLVPAEEQRRMLGAIHASTTFPFRAEGGRVLYSCVVGGARQPGLVEQDEDALAALAREELKALAGVTARPSFTRVFRWPLGIPQYNLGHLERVAAIDAALQRLPGLHLIGNAYKGVGLNDCIRNAAQLADALVAGNTSHAP
modifications: Synthetic (Protoporphyrinogen IX oxidase (MxPPO) of Myxococcus xanthus)
For B8, the “Herbicide tolerance, flumioxazin” value (MxPPO [1]) was “+ (1-9 fold higher tolerance)”, the “Herbicide tolerance, sulfentrazone” value (MxPPO [1]) was “+++ (100-999 fold higher tolerance)” and the “Activity (%)” value (MxPPO [2]) was 17%.
